Test results reported in the nanobody polyreactivity screen of Harvey et al. (2022).

Assay: yeast display, Sf9 membrane polyspecificity reagent, FACS + sequencing; frameworks hold sequencing errors
Procedure, shortened: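 Galactose induction of a Saccharomyces cerevisiae BJ5465 synthetic nanobody display library ran 36–48 hours. The cells were then stained for 1 hour at 4 °C with 10% biotinylated, detergent-solubilized Sf9 membrane reagent, pulled down on streptavidin microbeads and FACS-sorted into low and high (top ~1%) gates on expression and reagent-binding fluorescence. Labels for polyreactivity follow the gate of origin.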

Sequence	polyreactivity (PSR sort gate)
QVQLVESGGGLVQAGGILRLSCAASGSIFSQYAMGWYRQAPGKERELVATISWNGGRTYYADSVKGRFTISRDNAKNTVYLELNSLKPEDTAVYYCAARYGGVPYYYWGQGTQVTVSS	high polyreactivity
QVQLVESGGGLVQAGGSLRLSCAASGRTFATYMGWYRQAPGKERELVAGITRGGNTNYADSVKGRFTISRDNAKNTVYLQMNSLKPEDTAVYYCAKLKYRSHYSWGQGTQVTVSS	high polyreactivity
QVQLVESGGGLVQAGGSLRLSCAASGSIFDGYAMGWYRQAPWKERELVAAISYTGGRKYYADSVKGRFTISRDNAKNTVYLQMNSLKPEDTAVYYCAARYHLGRSPRYYRGQGTQVTVSS	high polyreactivity
QVQLVESGGGLVQAGGSLRLSCAASGFNFRSYAIGCYRQAPGKERELVAAITSTGGRTYYADSVKGRFTISRDNAKNTVYLQMNSLKPEETAVYYCAAGRKHYAPVHFGYWGQGTQVTVSS	high polyreactivity
QVHLVESGGAFVQAGGSLRLSCAASGRTFGYKAMGWYRQAPVNERELVAAITAGGSTNYADSVKGRFTISRDNAKKTVELQMNRLKPEDTAVYDSAARTYYVPYYYWGQGTQVTVSS	high polyreactivity
QVQLVESGVGLVQAGGSLRLSCAASGSIFASYAMGWYRQAPGKERELVAAISRSGTSTRYADSVKGRFTISRDNAKNTVYLQMNSLKPEDTAVYYCAARWYVFFRKYDYWGQGTQVTVSS	high polyreactivity
QVQLVESGGGLVQAGGRLRLSCAASGSTSTLYAMGWYRQAPGKERELVAAISKSGGRTYYADSVKGRFTSSRDNAKNTVDLQMNSLKPEDTAVYYCAALAVYPRRFDYWGQGTQVTVSS	high polyreactivity
KVQLVESVGGLVQAGGSLRLSCAASGRIFGVNAMGWYRQAPGKERELVAAIRSGDSTNYADSVKGRFTISRDNAKNTVYLQMNSLKPEDTAVYYCATDLYFDLRYDYWGQGTQVTVSS	low polyreactivity
QVQLVESGGRLVQAGGSLRLSCAASGRTIRYNAMGWYRQAPGKERELVASISDGGSTNYADSVKGRFTISRDNAKNTVYLQMNSLKPEDTAVYYCALAGYRRYGYVYWGQGTQVTVSS	low polyreactivity
QVQLVESGGGLVQAGGSLRLSCAASGRTIYQYAMGGYRQATGKARELDAAISRGGSTNFADSLKGRFTISRDNAKNTVYLQMNSLKPEDTAVYYCASWYKFLSLKRLYERDYWGQGTQVTVSS	high polyreactivity
QVQLVESGGGLVQGGGSLRLTCAASGSIFHYYAMGWYRQAPGKERELVAAINSSGGSRTYYADSVKGRFTISRDNAKNTVYLQMNSLKPEDTAVYYCAADYRVVWRAYDYWGQGTQVTVSS	low polyreactivity
QVLLVVSGGGLVQAGGSLRLSCAASGFTFDTYAMGWNRQAPGKERELVAVITRGGSTNYADSVNGRFTISRDNAKNTVYLQMNSLKPEDTALYFCAAEHRNTYTFARDYYWGQGTQVTVSS	high polyreactivity
QVQLVESGGGLVQAGGSLRLSCAASGRTFNTNAMGWYRQAPGKERELVAAITRSGDSTYYADSVKGRFTISRDNAKNTVYLQMNSLKPEDTAVYYCAAYSRTLYPDRYYWGHGTQVTVSS	high polyreactivity
QVHLVESGGGLVQAGGSLRLSCAASGSIFSLYAMGWYRQAPGKERELVAAITRSGAGTYYADSVKGRFTISRDNAKNTVYLQLNSLKPEDTAVYYCANRTKTPTGYVWGGYDYWGQGTQVTVSS	high polyreactivity
QVQLVESGGGLVQAGGSLRLSCAASGLTFYYYAMGWYRQAPGKEREIVAAISRSGGTTYYADSVKGRFTISRDTAKNTVYLQMNSLKPEDTAVYYCNAQWWRYWPSQVIFDYWGQGTQVTVSS	high polyreactivity
QVQLVESGGGLVQAGGSLRLSCAASGAIFVAYAMGWYRQAPGKDRELVAAITYSAGSTYYADSVKGRFTISRDNAKNTVYLQMNSLKPEDTAVYYCAADALVYSFIGYEYWGQGTQVTLSS	low polyreactivity
QVQLVESGGGLVQAGGSLRLSCAASGLIFYDNMGWYRQAPGKERELVAAISSSGGSTSYADSVKGRFTISRDNAKNTVYLQMNSLKPEDTAVYYCAADSYPAYLGFVGFDYWGQGTQVNVSS	low polyreactivity
QVQHVESGGGLVQAGGSLRLSCAASGRIFSRYAMGWYRQAPGKERELVAAITSGGSTYYADSVKGRFTISRDNAKNTVYLQMNSLKPEDTAVSYCATRYRFGSYHSIYDYWGQGTQVTVSS	high polyreactivity
QVQLVESGGGLVQAGGSLRLSCAASGSTFYIYAMGWYRQAPGKERELVAAITEGGGITYYADSVKGRFTISRDNAKNTVYLQMISLKPEDTAVYYCADVWGYYVLPYDYWGQGTQVTVSS	low polyreactivity
QDQLVESGGGLVQAGGSLRLSCAASGSTFFRNAMGWYRQAPGKERELVASITSGGNTKYADSVKGRFTISCDNAKNTVYVQMNSLKPEDTAVYYCAAQFYHFARYSRLYNSWGQGTQVTVSS	low polyreactivity
QVQLVESGGGLVQAGGSLRLSCAASGRTFNFYAMGWYRQAPGKERELVATISGGVSTYYADSVKGRFTISRDNAKNTVYLQMNSLKPEDTAVYYCAKDSGYPQWDLDYWGQGTQVTVSS	high polyreactivity
QVQLVESGGGLVQAGGSLRLSCAASGSTFDSNVMGWYRQAPGKERELVAVINGSGSNTYYADSVKGRFTISRDNAKNTVYLQMNSLKPEDTAVYYCAVERSVYSYYYWGQGTQVTVSS	high polyreactivity

Sequence	polyreactivity (PSR sort gate)
QVQLVESGGGLVQAGGSLRLSCAASGRIFGTYAMGWYRQAPGKERELVAAISFRGGSTYYADTVNGRFTISRDNAKNTVYLQMNCLKPEDTAVYYCNARKRYSTDPGDYWGQGTQVTVSS	high polyreactivity
QVHLVESGGGLVQAAGILRLSSAASGFTFVPYAMGWYRQAPGKERELVAAISWRRGSTYYADSVKGRFTISRDNAKITVYLQMNSLKPEDSGVYYGDDQYFSRSGYWGQGTQVTVSS	high polyreactivity
QVQLVESGGGLVQAGGSLRLSCAASGRIVRNAIGWYRQAPGKERELVAAISRSGGSTYYADSVKGRFTISRDNAKNTVYLQMNSLKPEDTAVYYCDKRSTSQSLQGEYWGQGTQVTVSS	high polyreactivity
QVQLVESGGGLVQAGGSLRLSCAASGSIFAYYVMGWYRKAPGKERELVAAITSVGSTNYADSVKGRFTISRDNAKNTVYLQMNCLKPEDTAVYSCAAVQYQASYYYWGQGTQVTLSS	low polyreactivity
QVQLVESGGGLVQAGGSLRLSCAPSGRTFTAYAMGWYRQAPGKERELVAAITSGGSTYYADSVKGRFTISRDNAKNTVYLKRKSLKPEDTAVYYCATDLYSFYWPEYEYWGQGTQVTLSS	low polyreactivity
QVQIVESGGGLVQAGGRLRLSCSASGSIFDWYDMGWYRQAPGKERELVAAITTGGITNYADSVKGRFTLSRDNAKNTVYLQMNSLKPEDTAVYYCAADSLGVYDGDYWGQGTQVTVSS	low polyreactivity
QVQLVESGGGLVQAGGSLRLSCAASGRTSTIYTMGWYRQAPGKESEFVASISAGAGTYYADSVKGRFTISRDNAKNTVYLQMNSLKPEDTAVYYCNASVYWRSTRRHQMDYWGQGTQVTVSS	high polyreactivity
QVQLVESGGGLVQAGGSLRLSCAASGFIFTGYAMGWYRQAPGKERELVASISSGGSTYYADSVKGRFTISRDNAKNTVYLLMNSLKPEDTAVYYCNASVSLGRYPGNEYDYEYWGQGTQVTVSS	low polyreactivity
QVQLVQSGGGLVQAGGSLRLSCAASGRTFGVYAMGWYRQAPGKERELVAAITWSGGSTYYADSVKGRFTISRDNAKNTVYLQMNSLKPEDTAVYYCAALTWLSGVKMGYWGQGTQVTVSS	high polyreactivity
QVQLVESGGGLVQAGGSLRLSCAASGRIFVGYAMGWYRQAPGKERELVAAISARGGSTYYADSVKGRFTISRDNAKNTVYLQMNSLKPEDTAVYYCAADEASSRGYYDYDYWGQGTQVTVSS	low polyreactivity
QVQLVESGGGLVQAGGSHRLSCAASGSIFYYYTMGWYRQAPGKERELVASITGGGSTYYADSVKGRFTISRDHAKNTVYLQMNSLKPEDTAVYYCAAYSLRPRWRREYDYWGQGTQVTVSS	high polyreactivity
QVQLVESGGGLVQAGGSLRLSCAASGRIFKRNAMGCYRQAPGKERELVATIDWSGGSTYYADSVKGRFTISRDNAKNTVYLQMNSLKPEDTAVYYCAAASGRWNKYGYWGQGTQVTVSS	low polyreactivity
QVQLVESGGGLVQAGGSLRLSCAASGRIFGFNTMGWYRQAPGKERELVAAITSGGSTYADSVKGRFTISRDNAKNTVYLQMNSLKPEDTAVYYCNTRFYRPLWGYNYWGQGTQVTVSS	low polyreactivity
QVQLVESGGGLVQAGGSLRLSCAASGRIFRTYAMGWSRQAPGKERELVAAISGSGGRTYYADSVKGRFTISRDNAKNTVYLQMNSLKPEDTAVYYCAKYVSIVRYGSTTNYDYWGQGTQVTVSS	high polyreactivity
QVQLVESGGCLVQAGGSRRLSCAASGLTIYHYAMGWYRQATGKERELVAAITNGYSTYYADSVKGRFTISLDNAMNTVYLQMNSLKPEDTAVYSCNADQPGDQHSGYWGQGTQVTVSS	low polyreactivity
QVQLVESGGGLVHAGGSLRLSCAASGITFEVYGMGWYRQSPGKERELVAAINSDGNTNYADSVKGRFTISRDNAKNTVYLEMNSVKPEDTAVYYCATVVNAQISRGESAVTGYYYWGQGTQVTVSS	high polyreactivity
QVQLVESGGGLVQAGGSLRLTCAASGSIFEVNAMGWYRQAPGKERELVAGISNADSTNYADSVKGRFTISRDNAKNTVYLQMNSLKPEDTAVYYCATDLDRDLPKDLLGPEYDYWGQGTQVTVSS	low polyreactivity
QVQLVESGGGLVQAGGSLRLSCAASGSIFIANAMGWYRQAPGKERELVASISSGGSTNYADSVKGRFTISRDNAKNTVYLQMNSLKPEDTAVYYCAADGTDDYGGDFYLWVDYWGQGTQVTVSS	low polyreactivity
QVQLVESGGGLVQSGGSLRLSCAGSGSTLYYYVMGWYRQAPGKERELVAAISSSGDSTYYADSVKGRFTISRDNAKNTVSLQMNSLKPEDTAVYYCNAGWYFYGESTDDYWGQGTQVTVSS	low polyreactivity
QVQLVESGGGLVQAGGSLRLSCAASGRTFYGYTMGWYRQAPGKERELVAAISTGGGSTYYADSVKGRFTISRDNAKNTVYLQMNSLKPEDTEVYYCAARGGSYSFRRYNYWGQGTQVTVSS	high polyreactivity
QVQLVESGGGLVQAGGSLRLSCAASGSIFGYNDMGWYRQAPGKERELVAAIDWSDDITYYADSVKGRFTISRDNAKNTVYLQMNSLKPEDTAVYYCATKIRLALYFGYVSEYDYWGQGTQVTVSS	high polyreactivity
